Results: PMC3200309 (Cell, 2011)

B1: PTP1B-OX, PTP1B (1-321) reversibly oxidized with H2O2 (domain or fragment)
chain: MEMEKEFEQIDKSGSWAAIYQDIRHEASDFPCRVAKLPKNKNRNRYRDVSPFDHSRIKLHQEDNDYINASLIKMEEAQRSYILTQGPLPNTCGHFWEMVWEQKSRGVVMLNRVMEKGSLKCAQYWPQKEEKEMIFEDTNLKLTLISEDIKSYYTVRQLELENLTTQETREILHFHYTTWPDFGVPESPASFLNFLFKVRESGSLSPEHGPVVVHCSAGIGRSGTFCLADTCLLLMDKRKDPSSVDIKKVLLEMRKFRMGLIQTADQLRFSYLAVIEGAKFIMGDSSVQDQWKELSHEDLEPPPEHIPPPPRPPKRILEPHN
modifications: active site Cys215 reversibly oxidized (cyclic sulfenyl-amide: S of Cys215 linked to the main-chain N of Ser216)
B2: scFv45 (conformation-sensor single chain variable fragment, purified from E. coli) (scFv, V domains shown)
VH: TVTLDESGGGLQAPGGALSLVCKASGFTFSSYDMGWIRQAPGKGLEYVAGITDNGRYASYGSAVDGRATISRDNGQSSVRLQLNNLRAEDTGTYYCARDDGSGWTGNSIDAWGHGTEVIVSS
VL: LTQPSSVSANPGGTVKITCSGSSSAYGYGWYQQKSPGSAPVTVIYNNNKRPSNIPSRFSGSKSGSTGTLTITGVQAEDEAVYFCGSEDSSTDAIFGAGTTLTVL

What was measured:
[1] = target: scFv45 (conformation-sensor single chain variable fragment, purified from E. coli) (chicken); test: SPR
[2] = target: PTP1B-CASA mutant (C215A, S216A), PTP1B (1-321) (Homo sapiens, UniProt P18031, Cys215 to Ala | Ser216 to Ala); test: SPR

Binder | Kd [1] [nM] | koff [1] [s⁻¹] | Kd [2] [nM]
B1 | 46 | 0.0023 | 
B2 |  |  | 52
